Test results from article PMC8210318.

Biological target: replication protein A (RPA) heterotrimer (UniProt P27694)

- free, unbound DNA liberated from pre-bound RPA (12.5 nM)–fork-2 DNA complex in EMSAs on incremental addition of N-HelQ (0–500 nM): 40%
B1: N-HelQ, N-terminal HelQ fragment (amino acids 1-240) (domain or fragment)
chain: MDECGSRIRRRVSLPKRNRPSLGCIFGAPTAAELVPGDEGKEEEEMVAENRRRKTAGVLPVEVQPLLLSDSPECLVLGGGDTNPDLLRHMPTDRGVGDQPNDSEVDMFGDYDSFTENSFIAQVDDLEQKYMQLPEHKKHATDFATENLCSESIKNKLSITTIGNLTELQTDKHTENQSGYEGVTIEPGADLLYDVPSSQAIYFENLQNSSNDLGDHSMKERDWKSSSHNTVNEELPHNCI
